Consider one molecule from patent CN109810195A (INST OF HEMATOLOGY BLOOD DISEASES HOSPITAL OF CHINESE …, dated 2019).

This test addresses T1, 人CD123蛋白 (白细胞介素3受体α链, IL3RA) (human, UniProt P26951 19-378).
T1 construct: whole, on cells
Nature of the test: FACS, PE-labelled 13C3 titrated (200nM to 0.003nM) on 3T3 cells transfected with CD123; Kd fitted in GraphPad Prism 5.

T1 sequence (P26951 19-378): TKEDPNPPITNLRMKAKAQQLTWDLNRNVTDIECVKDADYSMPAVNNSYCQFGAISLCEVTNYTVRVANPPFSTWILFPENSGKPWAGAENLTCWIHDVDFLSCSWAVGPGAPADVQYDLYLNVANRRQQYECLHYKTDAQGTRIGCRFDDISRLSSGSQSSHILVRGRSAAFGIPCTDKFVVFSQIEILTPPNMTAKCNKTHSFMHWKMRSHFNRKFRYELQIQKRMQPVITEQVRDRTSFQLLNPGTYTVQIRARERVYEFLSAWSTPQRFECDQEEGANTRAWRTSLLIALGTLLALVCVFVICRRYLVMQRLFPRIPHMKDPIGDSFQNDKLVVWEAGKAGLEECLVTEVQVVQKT

B1: 鼠抗人CD123单克隆抗体13C3 (antibody, V domains shown)
VH: QVQLQESGPGILQPSQTLTLTCSFSGFSLSTSGMGVGWIRQPSGKGLEWLAHIWWDDDKRYKPALKSRLTISKDTSSNQVFLKIASVDTADAATYYCARMGGGNYLFLYAMDFWGQGTSVTVSA
VL: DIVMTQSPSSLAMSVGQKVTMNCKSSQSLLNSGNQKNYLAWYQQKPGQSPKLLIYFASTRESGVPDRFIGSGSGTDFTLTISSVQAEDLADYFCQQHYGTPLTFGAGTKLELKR
notes: PE-labelled purified antibody in the Kd assay and on patient samples; also called 抗CD123单克隆抗体13C3; 杂交瘤细胞株13C3 (CGMCC No.16699) 产生的抗体
As to B1, the Kd was determined as 3.67 nM.

A word on the Kd: it is the constant that tells how readily two partners part at equilibrium. Lower therefore signals a tighter complex.
